# Results: patent US11643670B2, “Methods of enhancing chromosomal homologous recombination” (Massachusetts Institute of Technology, priority 2018, dated 2023)
# Columns and labels:
# [1] = system: Chd2 locus; assay: Chd2^R1684H knock-in by pronuclear injection of Cas9/crRNA/tracrRNA and ssODN, genotyping of cultured embryos; type: cell-based, mouse
# Experimental: (§1) tracrRNA, crRNAs, and ssODNs were synthesized by Integrated DNA Technologies (TABLE 1). All injection mixtures were prepared in a final volume of 50 μL according to the following methodology: Using RNase-free water, reagents, and consumables, crRNA (final concentration 0.61 μM), tracrRNA (final concentration 0.61 μM), and ultrapure Tris-HCl, pH 7.39 (final concentration 10 mM, ThermoFisher) were mixed and incubated at 95° C. for 5 minutes. The mixtures were cooled to room temperature for 10 minutes on the benchtop, and then, EnGen Cas9-NLS S. pyogenes (New England Biolabs) was added to a final concentration of 30 ng/μL. The mixtures were incubated at 37° C. for 15 minutes before adding any remaining components: ssODN (final concentration 3 ng/μL or 30 ng/μL), RAD51 (Creative Biomart, final concentration 10 ng/μL). Injection mixtures were stored on ice and briefly heated to 37° C. prior to injection. For experiments utilizing RS-1, embryos were cultured in KSOM-AA (EMD Millipore MR-121-D) with […] RS-1 (Sigma) dissolved in DMSO or DMSO (Sigma, 1:1000) for 24 hours, washed, and cultured in EmbryoMax FHM HEPES Buffered Medium (Sigma) until collection for genotyping.
# Female mice (4-5 weeks old, C57BL/6N) were superovulated by IP injection of PMS (5 IU/mouse, three days prior to microinjection) and hCG (5 IU/mouse, 47 hours after PMS injection) and then paired with males. […]
# [2] = system: Tyr^C89S locus; assay: Tyr^C89S knock-in by three-component CRISPR, genotyping/albino phenotype of F0 pups; type: in vivo, mouse
# Experimental: as §1
# For all experiments except those described in FIG. 6, the male pronucleus was injected. Injections performed for the CPI portion of FIG. 6 were targeted to the cytoplasm. […]
molecule,measurement,setting,value
"RAD51: recombinant human strand exchange protein RAD51 (Creative Biomart RAD51-134H), transcript variant 4 (protein, UniProt Q06609 2-339, looked up) DNA repair protein RAD51 …: AMQMQLEANADTSVEEESFGPQPISRLEQCGINANDVKKLEEAGFHTVEAVAYAPKKELINIKGISEAKADKILAEAAKLVPMGFTTATEFHQRRSEIIQITTGSKELDKLLQGGIETGSITEMFGEFRTGKTQICHTLAVTCQLPIDRGGGEGKAMYIDTEGTFRPERLLAVAERYGLSGSDVLDNVAYARAFNTDHQTQLLYQASAMMVESRYALLIVDSATALYRTDYSGRGELSARQMHLARFLRMLLRLADEFGVAVVITNQVVAQVDGAAMFAADPKKPIGGNIIAHASTTRLYLRKGRGETRICKIYDSPCLPEAEAMFAINADGVGDAKD",homozygous KI rate relative to injection without RAD51,[1],more than doubled
same,pups with albino phenotype from homozygous KI of the Tyr^C89S allele,"[2]; F0 pups with RAD51, 12% without",44.4%
same,homozygous KI rate relative to injection without RAD51,[2]; Tyr locus,more than doubled
